# In publication PMC4356361, “Three-dimensional structures of Plasmodium falciparum spermidine synthase with bound inhibitors suggest new strategies for drug design” (Acta Crystallographica Section D: Biological Crystallography, 2015):
# Target: the molecule itself
# Assay: crystal structure; hanging-drop vapour diffusion at 295 K, 0.1 M MES pH 5.6, 0.1 M ammonium sulfate, 27% PEG 3350; space group C2, three monomers in the asymmetric unit; protein pre-incubated with small-molecule ligands
protein,measurement,value
"Plasmodium falciparum spermidine synthase, 39-residue N-terminally truncated construct (enzyme, UniProt Q8II73 40-321, looked up, Spermidine synthase of Plasmodium falciparum, construct lacking the first 39 N-terminal residues, in the p15-Tev-LIC vector, as described in Dufe et al. (2007); The crystals also held small-molecule ligands (MTA, dcAdoMet, putrescine, spermidine, 4MAN, 4AMA, BIPA); also called PfSpdS; SpdS; source: His-tag removed with TEV protease; not shown: His6, N-terminal, cleaved) SKKWFSEFSIMWPGQAFSLKIKKILYETKSKYQNVLVFESTTYGKVLVLDGVIQLTEKDEFAYHEMMTHVPMTVSKEPKNVLVVGGGDGGIIRELCKYKSVENIDICEIDETVIEVSKIYFKNISCGYEDKRVNVFIEDASKFLENVTNTYDVIIVDSSDPIGPAETLFNQNFYEKIYNALKPNGYCVAQCESLWIHVGTIKNMIGYAKKLFKKVEYANISIPTYPCGCIGILCCSKTDTGLTKPNKKLESKEFADLKYYNYENHSAAFKLPAFLLKEIENI",binding result,binds
